Consider one molecule from patent publication JP2023014062A (dated 2023).

Assay [1] concerns the target T1, B.1.351変異株(ベータ株又は南ア株)のSタンパク質のRBDタンパク質 (SARS-CoV-2 B.1.351変異株, UniProt P0DTC2 322-536).
T1 construct: range 322-536
The assay is described as follows: ELISA, RBD coated at 2 μg/ml, Expi293 culture supernatant, HRP anti-human IgG. (In general: An ELISA detects its analyte on a solid surface through an enzyme-linked reagent.)

The target of assay [2] is T2, B.1.1.7変異株(アルファ株又は英国株)のSタンパク質のRBDタンパク質 (SARS-CoV-2 B.1.1.7変異株, UniProt P0DTC2 322-536).
T2 construct: range 322-536
Described as above.

B1: 抗体NCV2SG53 (antibody, V domains shown)
VH: QVQMVESGGGLVRPGGSLRLSCAASGFTFSDYYMSWIRQAPGKGLEWISYISSSGSSMNYADSVKGRFTISRDNAKNSLFLQMNSLRAEDTAVYYCAREFDLTKIIMVPPYWGQGTLVTVSS
VL: AIQLTQSPSSLSASVGDRVTITCRASQGISSYLAWYQQKPGKAPKVLIYAASTLQSGVPSRFSGSGSGTDFTLTISSLQPEDFATYYCQQLKSYPLTFGGGTKVEIT
In the case of B1, the binding result in assay [1] and in assay [2] was “binds” in each case.
